Experimental findings from patent publication US20240262910A1 (Memorial Sloan Kettering, published 2024) are described below.

Substitutions are numbered along the chain they refer to.

In experiment [1] the target is T1, human CD33 extracellular domain with 6xHis-tag (human, UniProt P20138 18-259).
T1 construct: Bought (R&D Systems, Acro Biosystems); also called huCD33-His; huCD33(ECD)-His
The experiment can be described thus: ELISA, hybridoma supernatant.

Experiment [2] has as its target T2, human CD33 IgC2 type domain with 6xHis-tag (human, UniProt P20138 140-259).
T2 construct: Produced at LakePharma; also called huCD33IgC2-His; CD33 IgC2-6xHis
The experiment can be described thus: ELISA, hybridoma supernatant, RLU.

For experiment [3], the target named is T3, human CD33, full length, on cells (human, UniProt P20138 18-364).
T3 construct: NIH-3T3 cells stably overexpressing full-length human CD33, or AML lines U937 and Set2 with endogenous CD33; the cell line is named under assay; also called 3T3-huCD33; 3T3-CD33
T3 sequence (P20138 18-364): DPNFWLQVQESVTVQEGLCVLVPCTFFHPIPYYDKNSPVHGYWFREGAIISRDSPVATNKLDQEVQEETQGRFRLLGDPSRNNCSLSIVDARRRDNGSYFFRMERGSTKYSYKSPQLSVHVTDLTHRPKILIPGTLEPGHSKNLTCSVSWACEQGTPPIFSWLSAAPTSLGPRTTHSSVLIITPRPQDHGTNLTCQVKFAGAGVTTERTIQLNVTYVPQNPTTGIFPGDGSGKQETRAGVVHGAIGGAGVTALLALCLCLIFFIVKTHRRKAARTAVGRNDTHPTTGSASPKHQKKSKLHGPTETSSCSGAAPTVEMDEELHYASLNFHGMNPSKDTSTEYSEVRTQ
Nature of the experiment: flow cytometry, purified mAb, Set2 cells.

Experiment [4] has as its target T3, human CD33, full length, on cells. Nature of the experiment: flow cytometry, purified mAb, U937 cells.
Experiment [5] shares this target. Nature of the experiment: flow cytometry, hybridoma supernatant, U937 cells.
For experiment [6] the target is unchanged. The experiment can be described thus: flow cytometry, hybridoma supernatant, 3T3-huCD33 cells.
Experiment [7] concerns the target T4, human CD33 IgC2 domain only, on NIH-3T3 cells (human, UniProt P20138 140-364).
T4 construct: the whole entry is named here; also called 3T3-huCD33IgC2; 3T3 CD33-IgC2
The experiment can be described thus: flow cytometry, hybridoma supernatant, 3T3-huCD33IgC2 cells, MFI.

Experiment [8] addresses T5, mouse CD33 extracellular domain with 6xHis-tag (mouse, UniProt Q63994 18-240).
T5 construct: range 18-240; also called moCD33-His; moCD33(ECD)-His
T5 sequence: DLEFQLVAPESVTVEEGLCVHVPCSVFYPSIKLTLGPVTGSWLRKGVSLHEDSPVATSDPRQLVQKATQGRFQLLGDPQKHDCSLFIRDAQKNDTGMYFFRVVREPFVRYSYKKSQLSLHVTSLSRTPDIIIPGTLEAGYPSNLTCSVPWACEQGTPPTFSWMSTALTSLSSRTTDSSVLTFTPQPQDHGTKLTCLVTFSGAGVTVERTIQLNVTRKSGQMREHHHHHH
The experiment can be described thus: ELISA on recombinant moCD33-His, purified hybridoma subclone antibody, readout RLU; antibody concentration not given.

In experiment [9] the target is T2, human CD33 IgC2 type domain with …. The experiment can be described thus: ELISA, hybridoma supernatant.
Experiment [10] has as its target T3, human CD33, full length, on cells. The experiment can be described thus: flow cytometry, U937 cells. How it is done:
(§1) Binding to CD33 on Cells. To assess the binding of TDI-Y-006, TDI-Y-007 and 1J19 to cell surface-bound CD33, 3T3 cells overexpressing CD33, as well as the U937 AML cell line, which expresses endogenous CD33, were used. U937 CD33KO or NALM6 were included as negative controls. Briefly, NALM6, U937 CD33+ and KO cells were blocked with human IgG Fc for 20 minutes on ice. The recombinant antibodies were then serially diluted starting at 100 μg/mL concentration and added for 30 minutes on ice. AlexaFluor 647-conjugated goat anti-human F(ab′)2 was added to cells for 30 minutes on ice, washed and analyzed by flow cytometry, normalized to secondary only staining (MFI ratio). EC50 values were determined by non-linear regression.

The target is the same in experiment [11]. The experiment can be described thus: flow cytometry, 3T3-CD33 cells. The procedure: as §1
Experiment [12] has as its target T1, human CD33 extracellular domain with …. The experiment can be described thus: BLI, huCD33-His on anti-penta-His sensor, no competitor. The procedure:
Epitope Binning. Epitope binning was carried out by a BLI competition experiment using an Octet Red96e. Human CD33-His was captured by an anti-penta-His biosensor. A 4×4 matrix with TDI-Y-006, TDI-Y-007, 1J19 and H195 was tested. A reference biosensor was used to determine the overall capture level for each antibody. After pre-binding the antibodies at saturation levels, the biosensors were dipped into antibody solutions to assess competition. […] However, when TDI-Y-006 was pre-bound, binding of TDI-Y-007 was blocked. […] Similarly, 1J19 and H195 have epitopes that partially overlap. No competition was observed between antibodies binding to the membrane-proximal IgC2 domain (TDI-Y-006 and TDI-Y-007) and antibodies binding to the membrane-distal IgV domain (1J19 and H195).

For experiment [13] the target is unchanged. The experiment can be described thus: BLI (Octet Red96e), antibody on anti-huFc sensor, huCD33-His as analyte, 1:1 fit. The procedure: The binding affinity to human CD33 protein was measured by biolayer interferometry (BLI) using an Octet Red96e. All experiments were carried out using kinetic buffer (PBS pH 7.4, 0.01% BSA, 0.002% Tween-20). The antibodies were captured by an anti-huFc biosensor and a 7-point, 2-fold dilution series of huCD33-His was used as analyte. The data was processed by double reference subtraction, and response curves were globally fit to a 1:1 Langmuir binding model. […] The binding affinities are similar to the H195 reference antibody.

T2 sequence (P20138 other isoform, or with tags, fused parts or gaps): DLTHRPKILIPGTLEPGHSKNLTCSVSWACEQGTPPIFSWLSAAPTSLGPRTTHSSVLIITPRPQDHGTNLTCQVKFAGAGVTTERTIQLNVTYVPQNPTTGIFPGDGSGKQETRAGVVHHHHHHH
T1 sequence (P20138 other isoform, or with tags, fused parts or gaps): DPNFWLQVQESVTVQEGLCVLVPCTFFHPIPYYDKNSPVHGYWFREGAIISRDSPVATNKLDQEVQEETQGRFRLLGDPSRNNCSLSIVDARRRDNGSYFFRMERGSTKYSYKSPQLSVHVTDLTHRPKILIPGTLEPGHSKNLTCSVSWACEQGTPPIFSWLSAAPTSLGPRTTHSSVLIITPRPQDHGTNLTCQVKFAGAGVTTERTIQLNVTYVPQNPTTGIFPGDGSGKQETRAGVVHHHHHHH
T4 sequence (P20138 140-364 limits assumed): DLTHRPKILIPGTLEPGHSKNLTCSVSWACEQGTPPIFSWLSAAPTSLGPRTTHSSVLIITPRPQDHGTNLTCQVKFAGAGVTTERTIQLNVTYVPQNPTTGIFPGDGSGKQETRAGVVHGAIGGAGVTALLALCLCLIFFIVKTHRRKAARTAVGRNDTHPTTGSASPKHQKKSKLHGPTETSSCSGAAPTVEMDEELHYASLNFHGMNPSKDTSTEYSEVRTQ

B1: 1-A20 (antibody, V domains shown)
VH: QVQLQESGPGLVKPSETLSLTCTVSGDSISSYYWSWIRQPAGKGLEWIGRIYTSGNTNYNPSLKSRVTMSVDKSKNQFSLKLRSVTAADTAVYYCARDGDNRDSDAFDIWGQGTMVTVSS
VL: SPGTLSLSPGERATLSCRASQNISSSYLAWCQQKPGQAPRLFIYGTSRRATGIPDRFSGSGSGTDFTLTISRLEPEDFAVYYCQQYGSSPLTFGGGTKVEIK
notes: AlivaMab mouse hybridoma antibody; also called 1-A20-A
On to B1, for which, in experiment [1], the RLU turned out to be 117000 RLU. In addition, the binding result in experiment [2] is “no binding”; in [7] it was “no binding (tested: A signal >100,000 was used as cut off)”; in [8], “no binding”. Besides, the concentration giving a half-maximal response (EC50) in experiment [3] came out at 0.4 nM; in [4], 0.6 nM. For the same molecule, the MFI stood at 558000 MFI in experiment [5] and 1.98e+06 MFI in experiment [6].

B2: 1-H19 (antibody, V domains shown)
VH: B1 VH with D27G, S31T, K73T, F78L, D103N
VL: QSVLTQPPSVSGAPGQRVTISCTGSSSNIGAGYDVHWYQQLPGTAPKLLIYGNSNRPSGVPDRFSGSKSGTSASLAITGLQAEDEADYYCQSYDRSLSGWVFGGGTKLTVL
notes: AlivaMab mouse hybridoma antibody; also called 1-H19-A
Take B2: the RLU in experiment [1] came to 132000 RLU; in experiment [9] it was 58900 RLU. For the same molecule, the EC50 in experiment [3] stood at 0.4 nM; in experiment [4] it was 0.866 nM. The MFI was 479000 MFI in experiment [5] and 1.75e+06 MFI in experiment [6]. The binding result in experiment [8] was “no binding”.

B3: 1-P13 (antibody, V domains shown)
VH: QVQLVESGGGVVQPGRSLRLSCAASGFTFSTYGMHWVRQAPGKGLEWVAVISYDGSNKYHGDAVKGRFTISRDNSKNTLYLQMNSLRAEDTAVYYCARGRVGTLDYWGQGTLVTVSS
VL: DVVMTQSPLSLPVSLGQPASISCRSSRGLVYSDVNTNLNWFQQRPGQSPRRLIYKVSNRDSGVPDRFSGSGSGTDFTLKISRVEAEDVGVYYCMQGTHWPWTFGQGTKVEIK
notes: AlivaMab mouse hybridoma antibody; also called 1-P13-A
B3 showed an RLU in [1] of 117000 RLU. In addition, the binding result in experiment [2] and in [8] was “no binding” each time. In addition, the figures for the concentration for a half-maximal effect (EC50) in [3] and in experiment [4] were 5 nM and 6.33 nM, respectively. For the same molecule, the MFI stood at 559000 MFI in experiment [5] and 2.15e+06 MFI in [6].

B4: H195 (lintuzumab) (antibody, V domains shown)
VH: QVQLVQSGAEVKKPGSSVKVSCKASGYTFTDYNMHWVRQAPGQGLEWIGYIYPYNGGTGYNQKFKSKATITADESTNTAYMELSSLRSEDTAVYYCARGRPAMDYWGQGTLVTVSS
VL: DIQMTQSPSSLSASVGDRVTITCRASESVDNYGISFMNWFQQKPGKAPKLLIYAASNQGSGVPSRFSGSGSGTDFTLTISSLQPDDFATYYCQQSKEVPWTFGQGTKVEIK
B4 returned an EC50 in experiment [10] of 0.4 nM. Also, the response in experiment [11] was half-maximal at 4.8 nM (EC50). In addition, in experiment [12], the “BLI total binding capacity (Reference Biosensor)” value was 0.743. Also, in experiment [13], the dissociation constant Kd worked out at 1.22 nM and the association rate constant (kon) was 358000 M⁻¹ s⁻¹.

B5: 1-P23 (antibody, V domains shown)
VH: QVQLVESGGGVVQPGRSLRLSCAASGFTFNSYGMHWVRQAPGKGLEWVAIISYDGSNKYYADSVKGRFTISRDNSKNTLYLQMNSLRAEDTAVYYCARDNYDSSGYNWYFDLWGRGTLVTVSS
VL: SSELTQDPAVSVALGQTVRITCQGDSLRSYYASWYQQKPGQAPVLVIYGKNNRPSGIPDRFSGSSSGNTASLTITGAQAEDEADYYCNSRDSSGNLWVFGGGTKLTVL
notes: AlivaMab mouse hybridoma antibody; also called 1-P23-A
B5 displayed an RLU in experiment [1] of 41800 RLU. For the same molecule, the binding result in experiment [2] is “no binding”; in experiment [7] it was “no binding (tested: A signal >100,000 was used as cut off)”; in experiment [8], “no binding”. Also, the half-maximal effective concentration (EC50) was 1.4 nM in experiment [3] and 1.07 nM in experiment [4]. In addition, the MFI in experiment [5] came to 456000 MFI; in experiment [6], 4.08e+06 MFI.

B6: 1-J19 (hybridoma antibody) (antibody, V domains shown)
VH: QVQLQQSGPGLVKPSQTLSLTCAISGDSVSSNSAAWNWIRQSPSRGLEWLGRTYFRSKWYNVYAVSVKSRITINPDTSKNQFSLQLNSVTPEDTAVYYCASEGGSYYDHWGQGTLVTVSS
VL: DIQMTQSPSSVSASVGDRVTITCRASQGISNWLTWYQQKPGKAPKLLIYAASSLQSGVPSRFSGSGSGTDFTLTISSLQPEDFATYYCQQADSFPFTFGPGTKVDIK
notes: AlivaMab mouse hybridoma antibody; also called 1-J19-A
Regarding B6, the RLU in [1] came to 95600 RLU; in experiment [9], 15200 RLU. In addition, the 50% effective concentration (EC50) was 7.93 nM in experiment [3] and 10.2 nM in [4]. The MFI in experiment [5] came to 339000 MFI; in [6], 3.86e+06 MFI. Moreover, the binding result in [7] was “no binding (tested: A signal >100,000 was used as cut off)”.

B7: 2-F18 (antibody, V domains shown)
VH: QIQLVESGGGVVQPGRSLRLSCAASGFTFSAYPMHWVRQAPGKGLEWVAIISYDGSNNYYADSVKGRFTISRDNSKNTMYLQINSLRAEDTGVYYCARGKVGTLDFWGQGTLVTVSS
VL: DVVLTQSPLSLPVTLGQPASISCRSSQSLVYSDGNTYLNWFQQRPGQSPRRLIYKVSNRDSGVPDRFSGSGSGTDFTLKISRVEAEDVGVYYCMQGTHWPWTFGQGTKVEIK
notes: AlivaMab mouse hybridoma antibody; also called 2-F18-A
B7: the RLU is 251000 RLU in experiment [1] and 20400 RLU in [9]. Moreover, the results for the concentration for a half-maximal effect (EC50) in experiment [3] and in experiment [4] were 24.2 nM and 11.9 nM, respectively. The MFI in experiment [5] worked out at 351000 MFI; in experiment [6], 3.56e+06 MFI. The binding result in [8] is recorded as “no binding”.

B8: 2-N3 (antibody, V domains shown)
VH: EVQLVQSGADVKKPGESLKISCKGSGFSFTSHWIAWVRQMPGKGLEWMGIIYPGDSDTRYSPSLQGRVTISADKSISTAYLQWSSLKASDTAMYFCARHETGNGYSYGMDVWGQGTTVTVSS
VL: DIVMTQSPLSLPVTPGEPASISCRSSQSLLHSNGYNYLDWYLQKPGQSPQLLFSLGSNRASGVPDRFSGSGSGTDFSLKISRVEAEDVGLYYCMQALQPPLTFGGGTKVEIK
notes: AlivaMab mouse hybridoma antibody; also called 2-N3-A
For the molecule B8, the RLU in experiment [1] amounted to 724000 RLU. Also, the binding result in experiment [2] is on record as “no binding”; in [7], “no binding (tested: A signal >100,000 was used as cut off)”; in [8], “no binding”. Further, the concentration for a half-maximal effect (EC50) came out at 0.466 nM in experiment [3] and 0.4 nM in experiment [4]. Also, the MFI in experiment [5] is 409000 MFI; in experiment [6] it was 4.21e+06 MFI.
